According to US20260234282A1 (VIB VZW, published 2026):

Experiments:
[1] = biological target: T1, recombinant human CD163 protein (hCD163-Avi-His6, U-Protein Express BV) (human, UniProt Q86VB7 42-1050, limits assumed, site-specifically biotinylated on the Avi tag in the ELISA format); test: ELISA-format binding of radiolabeled sdAb to human CD163-Avi-His6 protein, read by gamma-counter
T1 construct: Bought recombinant protein; also called hCD163 protein; recombinant hCD163; not shown: Avi tag and His6 tag
T1 sequence (Q86VB7 42-1050 limits assumed): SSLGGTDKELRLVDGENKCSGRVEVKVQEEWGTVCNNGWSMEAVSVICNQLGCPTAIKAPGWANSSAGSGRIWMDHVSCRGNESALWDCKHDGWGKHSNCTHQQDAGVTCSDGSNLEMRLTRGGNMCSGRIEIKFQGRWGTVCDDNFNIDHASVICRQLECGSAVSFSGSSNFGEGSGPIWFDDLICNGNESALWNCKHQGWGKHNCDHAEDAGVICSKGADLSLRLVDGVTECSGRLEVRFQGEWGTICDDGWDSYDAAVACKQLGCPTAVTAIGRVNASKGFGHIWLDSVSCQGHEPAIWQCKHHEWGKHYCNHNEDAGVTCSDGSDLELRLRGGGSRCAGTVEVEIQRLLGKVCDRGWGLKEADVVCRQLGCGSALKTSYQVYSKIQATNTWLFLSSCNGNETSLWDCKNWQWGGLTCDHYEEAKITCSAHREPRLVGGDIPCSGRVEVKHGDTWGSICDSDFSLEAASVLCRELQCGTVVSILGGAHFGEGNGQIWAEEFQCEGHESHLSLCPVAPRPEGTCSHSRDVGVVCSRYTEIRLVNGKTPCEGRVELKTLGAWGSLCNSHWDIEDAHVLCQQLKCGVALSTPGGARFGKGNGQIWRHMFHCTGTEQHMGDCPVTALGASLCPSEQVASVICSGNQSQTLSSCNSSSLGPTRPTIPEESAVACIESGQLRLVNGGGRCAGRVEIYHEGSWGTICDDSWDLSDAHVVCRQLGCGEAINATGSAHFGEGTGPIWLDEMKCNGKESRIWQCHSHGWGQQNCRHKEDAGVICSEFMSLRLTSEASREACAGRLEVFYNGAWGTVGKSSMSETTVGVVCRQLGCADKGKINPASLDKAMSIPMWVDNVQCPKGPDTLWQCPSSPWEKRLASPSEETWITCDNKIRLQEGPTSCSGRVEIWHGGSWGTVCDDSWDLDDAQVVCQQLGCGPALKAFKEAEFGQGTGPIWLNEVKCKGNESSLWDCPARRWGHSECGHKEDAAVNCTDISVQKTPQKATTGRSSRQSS
Text: (§1) FIG. 9. Determination of single domain antibody binding affinities after NOTA-conjugation via ELISA and a cell-binding study. (A) Binding of different concentrations of the ⁶⁸Gallium-labeled anti-CD163 single domain antibody (“[⁶⁸Ga]Ga-NOTA-anti-CD163 Nb”) to the human CD163-Avi-Hexahistine protein, compared to binding of a control irrelevant ⁶⁸Gallium-labeled single domain antibody (“[⁶⁸Ga]Ga-NOTA-Irr Nb”) (B) Single domain antibody binding of different concentrations of the […] anti-CD163 single domain antibody to HEK293T cells overexpressing mouse CD163.
(§2) Affinity determination of the [⁶⁸Ga]Ga-NOTA-anti-CD163 sdAb via ELISA was performed as described in the previous paragraph. The radioactive sdAb binding on the hCD163-Avi-His6 protein was measured via a γ-counter.

[2] = biological target: T1, recombinant human CD163 protein …; test: ELISA-format binding to hCD163-Avi-His6, bound radioactivity by gamma counter (FIG. 9A); radiolabeled; recombinant hCD163 protein (FIG. 9A)
Text: as §1, §2

[3] = biological target: T2, human CD163 on HEK293T cells overexpressing hCD163 (human, UniProt Q86VB7 42-1156); test: flow cytometry on HEK293T hCD163+ cells
T2 construct: whole, on cells; also called HEK hCD163+ cells; HEK293T hCD163+ cells
T2 sequence (Q86VB7 42-1156): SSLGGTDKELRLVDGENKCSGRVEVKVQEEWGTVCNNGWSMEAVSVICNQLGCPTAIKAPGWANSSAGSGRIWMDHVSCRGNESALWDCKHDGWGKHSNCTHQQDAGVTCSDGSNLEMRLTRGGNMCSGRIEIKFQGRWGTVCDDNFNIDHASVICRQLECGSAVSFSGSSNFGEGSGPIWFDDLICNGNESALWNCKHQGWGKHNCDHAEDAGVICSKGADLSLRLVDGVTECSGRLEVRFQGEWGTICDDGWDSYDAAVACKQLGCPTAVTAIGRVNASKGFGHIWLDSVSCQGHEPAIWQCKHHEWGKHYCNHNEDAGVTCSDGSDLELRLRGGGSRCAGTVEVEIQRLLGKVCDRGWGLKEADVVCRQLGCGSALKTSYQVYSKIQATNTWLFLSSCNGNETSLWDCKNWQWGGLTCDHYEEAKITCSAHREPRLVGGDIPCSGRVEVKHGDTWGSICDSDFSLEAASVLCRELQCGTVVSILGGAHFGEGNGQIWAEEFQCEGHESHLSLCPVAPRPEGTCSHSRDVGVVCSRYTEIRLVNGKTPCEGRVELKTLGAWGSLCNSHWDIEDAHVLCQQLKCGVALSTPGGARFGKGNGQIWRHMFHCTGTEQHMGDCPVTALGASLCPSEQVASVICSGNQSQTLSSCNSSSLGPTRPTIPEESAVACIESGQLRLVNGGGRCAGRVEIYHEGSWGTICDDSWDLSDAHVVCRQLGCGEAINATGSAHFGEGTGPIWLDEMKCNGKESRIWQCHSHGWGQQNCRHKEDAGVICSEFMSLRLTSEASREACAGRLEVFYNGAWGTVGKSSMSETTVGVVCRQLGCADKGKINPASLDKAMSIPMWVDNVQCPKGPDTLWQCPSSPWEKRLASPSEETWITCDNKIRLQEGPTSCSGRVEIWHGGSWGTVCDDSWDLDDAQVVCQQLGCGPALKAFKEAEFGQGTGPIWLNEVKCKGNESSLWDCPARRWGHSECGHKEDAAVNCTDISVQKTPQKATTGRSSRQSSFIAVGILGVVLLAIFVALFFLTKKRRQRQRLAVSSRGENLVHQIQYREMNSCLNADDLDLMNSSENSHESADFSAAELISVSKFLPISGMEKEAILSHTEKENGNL
Text: FIG. 2. Binding of the CD163-targeting single domain antibody (23766) to HEK293T cells overexpressing the hCD163 or mCD163 protein. A) Binding of different concentrations of the CD163-specific single domain antibody 23766 or an irrelevant single domain antibody (“Irr Nb”; R3b23) to HEK293T cells overexpressing (A), hCD163 or (B) mCD163 protein. Binding was detected as mean fluorescent intensity (MFI) via the C-terminal His-tag and a fluorescent labeled anti-His antibody using flow cytometry.
Serial dilutions of the CD163-targeting sdAb and of the NOTA-conjugated anti-CD163 sdAb were incubated with 500.000 HEK293T cells overexpressing hCD163 or mCD163 in FACS buffer (HBSS (Gibco) supplemented with 1% FBS and 2 mM EDTA (Duchefa Biochemie, Haarlem, The Netherlands)) for 1 h at 4° C. NOTA-sdAb binding was detected by incubation of the cells with a PE tagged anti-VHH Ab (1:500 in FACS buffer, Genscript, Piscataway, NJ, USA) for 30 min at 4° C. […] Next, sdAb binding was detected by incubation of the cells with an Alexa Fluor®-488 tagged anti-HA antibody (1:1000 in FACS buffer, clone 16B12, Biolegend, San Diego, CA, USA) for 30 min at 4° C. Again, cells were washed once with FACS buffer. sdAb binding was determined using the FACS CANTO II analyser (BD Biosciences, Franklin Lakes, NJ, USA). The mean fluorescent intensity of sdAb binding was determined using FlowJo version 10.

[4] = biological target: T1, recombinant human CD163 protein …; test: SPR (Biacore T200), recombinant hCD163 protein
Method: (§3) The affinity of purified CD163-targeting sdAb and of the NOTA-conjugated anti-CD163 sdAb to recombinant hCD163 and mCD163 protein (U-Protein Express BV) was determined using the BIACORE-T200 (GE Healthcare, Freiburg, Germany). Surface plasmon resonance measurements were performed at 25° C. with HEPES buffered saline (HBS, 20 mM of HEPES pH 7.4, 150 mM of NaCl, 3.4 mM of EDTA 0.05% Tween-20) running buffer. The sdAbs were injected consecutively in 2-fold serial dilutions, from 250 to 1 nM. The association step was 100 s, the dissociation step was 200 s, and the two-step regeneration of 35 s at 30 μL·min-1, using 100 mM glycine at pH 3.0, was performed. Local curve fitting analysis was performed using the BIACORE evaluation software (GE Healthcare) by fitting the obtained sensorgrams to theoretical curves, assuming 1-1 binding geometries. For the determination of the equilibrium dissociation constant, the ratio of the association and dissociation rate constants were determined.

[5] = biological target: T2, human CD163 on HEK293T cells …; test: flow cytometry on HEK293T hCD163+ cells; mean ± S.D. of at least 3 independent experiments
Method: Serial dilutions of the CD163-targeting sdAb and of the NOTA-conjugated anti-CD163 sdAb were incubated with 500.000 HEK293T cells overexpressing hCD163 or mCD163 in FACS buffer (HBSS (Gibco) supplemented with 1% FBS and 2 mM EDTA (Duchefa Biochemie, Haarlem, The Netherlands)) for 1 h at 4° C. NOTA-sdAb binding was detected by incubation of the cells with a PE tagged anti-VHH Ab (1:500 in FACS buffer, Genscript, Piscataway, NJ, USA) for 30 min at 4° C. Cells were washed once with FACS buffer. Next, sdAb binding was detected by incubation of the cells with an Alexa Fluor®-488 tagged anti-HA antibody (1:1000 in FACS buffer, clone 16B12, Biolegend, San Diego, CA, USA) for 30 min at 4° C. Again, cells were washed once with FACS buffer. sdAb binding was determined using the FACS CANTO II analyser (BD Biosciences, Franklin Lakes, NJ, USA). The mean fluorescent intensity of sdAb binding was determined using FlowJo version 10.

[6] = biological target: T1, recombinant human CD163 protein …; test: SPR, recombinant hCD163 protein; mean ± S.D. of at least 3 independent experiments; mean ± S.D of at least 3 independent experiments (Table 1B), not the single value of Table 1A
Method: as §3

[7] = biological target: T1, recombinant human CD163 protein …; test: binding to recombinant hCD163 protein (SPR per paragraph 101); NOTA-conjugated, not radiolabeled; recombinant hCD163 protein
Method: as §3

B1: [68Ga]Ga-NOTA-anti-CD163 single domain antibody (VHH)
VHH: DVQLVESGGGLVQPGGSLRLSCAASGITFSSYAVAWFRQASGKEREFVAFIGWDGDTTYYVDSVKGRFTISRDNAKNMVYLQMNSLKPDDTAIYYCARHKTLWRSSWDNRPVQYDYWGQGTQVTVSS
modifications: p-SCN-Bn-NOTA randomly conjugated to lysines, chelating 68Ga
notes: Radiolabeled form of the NOTA conjugate of the lead anti-CD163 sdAb; also called 68Gallium-labeled anti-CD163 single domain antibody; [68Ga]Ga-NOTA-anti-CD163 Nb
With B1 the “EC50 (read off the curve)” value [1] was about 7 nM and the Kd [2] was 9.11 nM.

B2: CD163-targeting single domain antibody 23766 (VHH, not shown: small tags and cut ends)
VHH: DVQLVESGGGLVQPGGSLRLSCAASGITFSSYAVAWFRQASGKEREFVAFIGWDGDTTYYVDSVKGRFTISRDNAKNMVYLQMNSLKPDDTAIYYCARHKTLWRSSWDNRPVQYDYWGQGTQVTVSS
notes: Llama-derived sdAb cloned in the pMECS phage vector; also called sdAb 23766; sdAb23766
In the case of B2, the Kd [3] is reported as 2.5 nM, the Kd [4] is reported as 3.5 nM and the Kd [5] is reported as 11.3 nM. It also gave a Kd [6] of 0.5 nM.

B3: NOTA-conjugated anti-CD163 single domain antibody (VHH)
VHH: DVQLVESGGGLVQPGGSLRLSCAASGITFSSYAVAWFRQASGKEREFVAFIGWDGDTTYYVDSVKGRFTISRDNAKNMVYLQMNSLKPDDTAIYYCARHKTLWRSSWDNRPVQYDYWGQGTQVTVSS
modifications: p-SCN-Bn-NOTA randomly conjugated to lysines; 2.32±0.12 chelator per single domain antibody
notes: The lead anti-CD163 sdAb (23766) conjugated to NOTA; also called NOTA-single domain antibody; NOTA-sdAb
B3 was tested, and the Kd [7] was 1.55 nM.
